The supplement of paper PMC10567573

B1: ZNF449 (parent)
chain: RIHSGEEPHKCPECGKRFLRSSDL
B2: DCAF4 (parent)
chain: TTKCVRQYEGHVNEYAYLPLHVHE

Variants of: B1
Assay: protein stability index of a GFP-peptide fusion (GPS, HEK-293T) (PSI 1-6); higher = more stable
Settings: c terminus: a fixed tail appended
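Further: lentivirally expressed fusions sorted by FACS into six bins by GFP to DsRed ratio, PSI derived from sequencing read proportions per bin multiplied by bin number.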

Protein stability index: each site, then its substitutions
L24: E 4.42 | A 3.92 | P 4.12 | G 3.82 | Q 4.91 | H 3.63 | I 2.5
I2: Y 3.79 | Q 3.91 | A 3.42 | D 4.06 | F 3.1
C11: I 4.51 | F 3.54 | R 4.32 | L 4.11 | K 4.5 | T 4.17 | S 3.72 | D 4.17
F18: T 3.75 | E 4.56 | M 3.32
L19: P 3.54 | F 3.26 | N 3.27 | E 4.32 | K 4.04 | S 4.05 | D 3.88
S4: E 3.7 | D 3.56 | F 2.3 | V 2.44 | I 3.07 | N 4 | P 3.16 | R 2.54 | L 3.19 | W 2.5
G5: D 3.74 | R 3.2 | F 3.22 | W 3.63 | Y 3.56 | T 4.24 | Q 3.82 | I 3.34 | E 3.62 | S 4.04
K10: S 3 | I 3.74 | W 3.72
G15: L 3.58 | A 3.9 | N 3.52
P12: W 2.05 | N 4.18 | V 3.5 | R 2.92
S22: D 4.06 | H 3.56 | P 3.5 | I 2.77 | V 3.58 | N 3.3 | Y 3.01 | K 2.57 | G 3.74 | F 2.77
E6: H 2.79 | K 2.88 | M 2.57 | N 3.08 | W 2.08 | L 2.92
H9: L 2.19 | Y 3.48 | K 3.83 | D 3.5 | E 3.78 | G 2.99 | I 4.09
K16: Q 3.66 | N 3.58 | G 3.13
D23: R 1.51 | E 2.52
E13: C 3.71 | M 2.92 | D 2.59 | K 2.72 | T 3.41 | V 3.44 | H 3.34
R1: K 3.6 | W 2.28 | I 2.38 | E 4.41 | G 3.74 | H 4.07 | V 3.05
P8: N 3 | K 2.51 | M 3.34 | W 3.72
H3: G 2.72 | N 3.55 | R 3.02 | C 3.76 | I 3.25 | K 2.7 | T 3.81
R17: Y 3.58 | P 3.66 | Q 3.63 | W 3.97
E7: N 2.51 | H 3.45 | Q 3.26 | T 3.04 | P 2.95
S21: T 3.56 | G 3.75
R20: D 3.47 | L 3.32 | Q 4.3 | M 3.41 | K 3.25
C14: V 4.21 | A 4.26 | E 5.1 | G 4.65 | D 4.58 | L 3.79 | Q 4.96

Variants of: B2
Assay: as above
Settings: c terminus: a fixed tail appended

Protein stability index: each site, then its substitutions
V12: A 3.03 | W 2.07 | E 3.35 | M 2.86 | D 3.19 | I 2.52 | G 3.13 | N 2.98 | R 2.6
E14: T 2.23 | G 2.29 | N 2.47 | Y 1.64 | R 2.34 | W 1.14 | L 1.63 | H 2.05
V22: Q 3.3 | N 3.19 | S 3.24 | W 2.61 | G 2.13 | R 2.58 | P 2.63 | M 3.06
N13: H 2.5 | Q 2.32 | I 1.66 | R 2.31 | P 3.12
E9: G 2.55 | P 2.51 | S 2.04 | D 3.04 | K 2.13 | T 1.91 | Q 2.52
T1: K 2.84 | W 1.92 | L 2.99 | F 1.74 | I 2
C4: T 3.42 | H 3.19 | N 3.48 | R 2.69 | P 3.1 | I 3.13 | Y 2.48 | E 3.59 | Q 2.94
Y15: S 3.28 | C 3.56 | D 3.36 | K 2.85 | E 3.6 | G 3.84 | N 2.88 | M 2.96 | P 3.51 | A 3.57 | R 3.43
Q7: M 2.19 | I 2.17 | D 2.8 | P 2.06
G10: Q 2.24 | M 2.06 | V 2.14 | D 3.07 | L 2.11 | S 2.69 | A 2.37 | R 2.3
H21: R 2.69 | G 2.06 | T 2.8 | K 2.16 | M 2.46 | D 3.55 | V 2.25 | S 3.05
Y17: H 2.94 | M 3.06 | V 2.81 | T 3.65 | N 3.08 | G 3.37 | R 3.06 | K 2.96 | E 4.23
V5: T 2.69 | G 2.31 | R 1.76 | K 1.99 | Y 1.82 | S 1.82 | W 2.46 | A 2.67 | L 2.84 | P 2.95 | Q 2.55
K3: I 1.73 | D 3.56 | E 3.58 | H 2.71 | A 3.11 | R 2.12 | Y 1.6 | T 2.71 | W 1.82 | L 2.6 | S 2.71
A16: H 3.05 | Q 3.01 | R 2.6 | L 2.33 | G 2.13 | P 3.02 | D 2.54 | W 1.84
H11: K 2.66 | P 3.25 | Y 2.84 | N 2.96 | V 3.56 | L 1.95 | A 2.7
Y8: A 2.65 | G 3.12 | W 2.42 | V 3.17 | S 3.19 | L 2.79 | H 2.64 | Q 3.39 | F 2.69 | C 2.66
E24: L 2.14 | H 2.23 | A 1.17 | R 2.18 | T 2.1 | I 2.1 | W 2.67 | Q 2.29 | V 2.02 | Y 1.89 | M 1.84
T2: M 2.52 | C 2.43 | E 3.23 | H 2.32 | W 2.43 | Q 2.41 | G 2.69 | P 3.05 | K 2.64 | Y 2.01 | R 2.41 | A 2.47 | F 2.47
R6: H 2.52 | D 2.87 | T 2.49 | A 3.02 | V 2.1 | E 3.12 | Y 2.4 | L 2.18 | S 2.01 | K 2.63
H23: E 3.21 | F 1.46 | N 2.81 | P 3.32 | D 3.45 | A 2.78
L20: F 2.35 | C 2.67 | T 2.85 | A 2.78
L18: V 2.48 | Y 2.38 | G 3.09 | I 2.26 | A 2.92 | M 2.82 | S 2.98 | Q 3.16
P19: M 2.47 | F 1.71 | C 1.84 | I 2.46 | A 1.89 | V 2.22 | Q 1.75 | E 1.82
